The record followed here is patent publication US20030086932A1.

Experiment [1] deals with murine CTLA-4 on murine T cells (murine) (UniProt P09793). The experiment is described as follows: cell-based or functional assay.
Experiment [2] addresses murine CD28 on murine T cells (murine) (UniProt P31041). Briefly: cell-based or functional assay.
Chain of UniProt P31041 (P31041 20-218): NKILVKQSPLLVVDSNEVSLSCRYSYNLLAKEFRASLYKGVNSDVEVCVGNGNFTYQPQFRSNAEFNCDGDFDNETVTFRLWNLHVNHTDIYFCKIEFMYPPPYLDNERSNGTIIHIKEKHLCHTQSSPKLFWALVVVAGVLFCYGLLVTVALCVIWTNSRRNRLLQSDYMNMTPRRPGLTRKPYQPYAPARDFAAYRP

Chain of UniProt P09793 (P09793 36-223): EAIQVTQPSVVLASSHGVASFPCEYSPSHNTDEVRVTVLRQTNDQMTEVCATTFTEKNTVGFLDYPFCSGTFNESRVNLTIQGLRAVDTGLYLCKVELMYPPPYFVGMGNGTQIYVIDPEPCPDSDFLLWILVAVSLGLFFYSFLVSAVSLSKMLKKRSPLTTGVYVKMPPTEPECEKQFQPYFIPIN

In the case of “mem4F10scFv (surface-linked anti-murine CTLA-4 scFv derived from hamster mAb UC10-4F10, anchored by a murine B7-1 derived motif, expressed on transiently transfected 293 cells) (from UniProt Q00609 247-302)”, in experiment [1], the reduction in IL-2 production of pre-activated T cells, with combined mem2C11 and memPVIscFvs was found to be 69%; the reduction in IL-2 production of pre-activated T cells, with mem2C11 scFv alone came out at 67%; the reduction in intensity of the tyrosine-phosphorylated LAT band (photodensitometry, against control scFv) came out at 35%; the reduction in intensity of the tyrosine-phosphorylated p23 TCR band (photodensitometry, against control scFv) was determined as 85%. Further, in experiment [1], the reduction in proliferation of pre-activated T cells, with combined mem2C11 and memPVIscFvs was found to be 66%; the reduction in proliferation of pre-activated T cells, with mem2C11 scFv alone came to 80%.
In turn, “memPVIscFv (surface-linked anti-murine CD28 scFv derived from hamster mAb PV-1, GPI anchored, expressed on transiently transfected 293 cells)” gave a proliferation and cytokine production of pre-activated T cells (increase over mem2C11scFv alone) in experiment [2] of 10 fold.
